Experimental data published in the supplement of paper PMC5998384.

Tests used:
HeLa Kyoto [1] = experiment: solubility change mitosis vs G1/S (difference of NP-40 vs SDS log2 ratios) (log2 ratio difference); higher = more soluble in mitosis
HeLa Kyoto [2] = experiment: melting temperature (median over replicates), in situ; higher = more thermally stable
HeLa Kyoto [3] = experiment: solubility in G1/S (NP-40 vs SDS abundance) (log2 ratio); higher = more soluble; conditions: cell cycle stage: G1/S
HeLa Kyoto [4] = experiment: thermal stability score vs G1/S (z-score of summed log2 fold changes over temperatures); higher = more thermally stable than in G1/S
[5] = cell cycle stage: early G1 (4.5 h after nocodazole release)
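Throughout, for melting temperature (median over replicates), in situ: HeLa Kyoto cells synchronized by double thymidine or nocodazole block, proteins quantified by TMT10plex mass spectrometry, three independent biological replicates.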
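Throughout, for solubility change mitosis vs G1/S (difference of NP-40 vs SDS log2 ratios): synchronized HeLa Kyoto cells (double thymidine block for G1/S, nocodazole release for mitosis), protein amounts in NP-40 versus SDS lysates quantified by mass spectrometry, three biological replicates.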
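Throughout, for solubility in G1/S (NP-40 vs SDS abundance): HeLa Kyoto cells arrested at G1/S by double thymidine block, proteins quantified by TMT10plex mass spectrometry in mild NP-40 versus SDS extracts, three biological replicates.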
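Throughout, for thermal stability score vs G1/S (z-score of summed log2 fold changes over temperatures): synchronized HeLa Kyoto cells, proteins quantified by TMT10plex mass spectrometry, three biological replicates, mitosis taken 0.5 h after nocodazole release, G1/S directly after double thymidine block.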

TROVE2, sequence (chain, as listed by the source): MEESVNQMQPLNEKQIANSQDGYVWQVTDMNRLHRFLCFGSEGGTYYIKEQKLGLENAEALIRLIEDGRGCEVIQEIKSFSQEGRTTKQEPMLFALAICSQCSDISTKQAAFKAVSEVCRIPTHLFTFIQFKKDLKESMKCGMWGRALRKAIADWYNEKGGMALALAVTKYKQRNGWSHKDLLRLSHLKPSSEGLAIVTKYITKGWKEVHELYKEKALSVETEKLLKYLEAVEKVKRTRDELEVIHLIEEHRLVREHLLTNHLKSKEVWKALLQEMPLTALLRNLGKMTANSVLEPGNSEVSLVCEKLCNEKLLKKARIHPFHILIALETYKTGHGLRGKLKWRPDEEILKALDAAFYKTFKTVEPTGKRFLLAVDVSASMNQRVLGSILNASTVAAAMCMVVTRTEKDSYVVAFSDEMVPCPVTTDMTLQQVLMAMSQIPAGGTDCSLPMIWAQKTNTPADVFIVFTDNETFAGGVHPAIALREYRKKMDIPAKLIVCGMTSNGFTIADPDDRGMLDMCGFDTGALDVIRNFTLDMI
PSMA6, sequence (chain, as listed by the source): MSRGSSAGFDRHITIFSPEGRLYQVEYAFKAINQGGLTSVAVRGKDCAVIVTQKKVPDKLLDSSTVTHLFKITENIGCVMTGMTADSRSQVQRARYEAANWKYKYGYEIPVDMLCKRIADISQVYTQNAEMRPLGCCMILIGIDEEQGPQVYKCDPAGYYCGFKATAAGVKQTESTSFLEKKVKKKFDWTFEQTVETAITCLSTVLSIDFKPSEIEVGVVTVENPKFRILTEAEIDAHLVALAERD

Substance | solubility change mitosis (log2) (HeLa Kyoto [1]) | melting temperature (HeLa Kyoto [2]; cell cycle stage: G1/S) | melting temperature (HeLa Kyoto [2]; cell cycle stage: mitosis) | solubility in G1/S (log2) (HeLa Kyoto [3]) | thermal stability score (HeLa Kyoto [4]; [5]) | thermal stability score (HeLa Kyoto [4]; cell cycle stage: mitosis)
MAETEERSLDNFFAKRDKKKKKERSNRAASAAGAAGSAGGSSGAAGAAGGGAGAGTRPGDGGTASAGAAGPGAATKAVTKDEDEWKELEQKEVDYSGLRVQAMQISSEKEEDDNEKRQDPGDNWEEGGGGGGGMEKSSGPWNKTAPVQAPPAPVIVTETPEPAMTSGVYRPPGARLTTTRKTPQGPPEIYSDTQFPSLQSTAKHVESRKDKEMEKSFEVVRHKNRGRDEVSKNQALKLQLDNQYAVLENQKSSHSQYN [CDV3] | 0.0994 | 57.2 °C | 53.4 °C | -0.0527 | -2.3 | -4.45
MPQTRSQAQATISFPKRKLSRALNKAKNSSDAKLEPTNVQTVTCSPRVKALPLSPRKRLGDDNLCNTPHLPPCSPPKQGKKENGPPHSHTLKGRRLVFDNQLTIKSPSKRELAKVHQNKILSSVRKSQEITTNSEQRCPLKKESACVRLFKQEGTCYQQAKLVLNTAVPDRLPAREREMDVIRNFLREHICGKKAGSLYLSGAPGTGKTACLSRILQDLKKELKGFKTIMLNCMSLRTAQAVFPAIAQEICQEEVSRPAGKDMMRKLEKHMTAEKGPMIVLVLDEMDQLDSKGQDVLYTLFEWPWLSNSHLVLIGIANTLDLTDRILPRLQAREKCKPQLLNFPPYTRNQIVTILQDRLNQVSRDQVLDNAAVQFCARKVSAVSGDVRKALDVCRRAIEIVESDVKSQTILKPLSECKSPSEPLIPKRVGLIHISQVISEVDGNRMTLSQEGAQDSFPLQQKILVCSLMLLIRQLKIKEVTLGKLYEAYSKVCRKQQVAAVDQSECLSLSGLLEARGILGLKRNKETRLTKVFFKIEEKEIEHALKDKALIGNILATGLP [CDC6] | 0.351 | 50.1 °C | 53.2 °C | -0.114 | 0.564 | 0.496
MSRYLLPLSALGTVAGAAVLLKDYVTGGACPSKATIPGKTVIVTGANTGIGKQTALELARRGGNIILACRDMEKCEAAAKDIRGETLNHHVNARHLDLASLKSIREFAAKIIEEEERVDILINNAGVMRCPHWTTEDGFEMQFGVNHLGHFLLTNLLLDKLKASAPSRIINLSSLAHVAGHIDFDDLNWQTRKYNTKAAYCQSKLAIVLFTKELSRRLQGSGVTVNALHPGVARTELGRHTGIHGSTFSSTTLGPIFWLLVKSPELAAQPSTYLAVAEELADVSGKYFDGLKQKAPAPEAEDEEVARRLWAESARLVGLEAPSVREQPLPR [RDH13] | 0.0735 | 51.1 °C | 51.6 °C | 0.415 | -0.911 | -0.156
PSMA6 | 0.0779 | 62.9 °C | 60.9 °C | -0.0362 | -1.86 | -3.6
MAADSEPESEVFEITDFTTASEWERFISKVEEVLNDWKLIGNSLGKPLEKGIFTSGTWEEKSDEISFADFKFSVTHHYLVQESTDKEGKDELLEDVVPQSMQDLLGMNNDFPPRAHCLVRWYGLREFVVIAPAAHSDAVLSESKCNLLLSSVSIALGNTGCQVPLFVQIHHKWRRMYVGECQGPGVRTDFEMVHLRKVPNQYTHLSGLLDIFKSKIGCPLTPLPPVSIAIRFTYVLQDWQQYFWPQQPPDIDALVGGEVGGLEFGKLPFGACEDPISELHLATTWPHLTEGIIVDNDVYSDLDPIQAPHWSVRVRKAENPQCLLGDFVTEFFKICRRKESTDEILGRSAFEEEGKETADITHALSKLTEPASVPIHKLSVSNMVHTAKKKIRKHRGVEESPLNNDVLNTILLFLFPDAVSEKPLDGTTSTDNNNPPSESEDYNLYNQFKSAPSDSLTYKLALCLCMINFYHGGLKGVAHLWQEFVLEMRFRWENNFLIPGLASGPPDLRCCLLHQKLQMLNCCIERKKARDEGKKTSASDVTNIYPGDAGKAGDQLVPDNLKETDKEKGEVGKSWDSWSDSEEEFFECLSDTEELKGNGQESGKKGGPKEMANLRPEGRLYQHGKLTLLHNGEPLYIPVTQEPAPMTEDLLEEQSEVLAKLGTSAEGAHLRARMQSACLLSDMESFKAANPGCSLEDFVRWYSPRDYIEEEVIDEKGNVVLKGELSARMKIPSNMWVEAWETAKPIPARRQRRLFDDTREAEKVLHYLAIQKPADLARHLLPCVIHAAVLKVKEEESLENISSVKKIIKQIISHSSKVLHFPNPEDKKLEEIIHQITNVEALIARARSLKAKFGTEKCEQEEEKEDLERFVSCLLEQPEVLVTGAGRGHAGRIIHKLFVNAQRAAAMTPPEEELKRMGSPEERRQNSVSDFPPPAGREFILRTTVPRPAPYSKALPQRMYSVLTKEDFRLAGAFSSDTSFF [RAB3GAP1] | -0.113 | 48.9 °C | 49.4 °C | -0.0664 | -0.345 | 0.335
TROVE2 | -0.0914 | 57.5 °C | 54.7 °C | -0.149 | -4.29 | -4.23
MPLAQLKEPWPLMELVPLDPENGQTSGEEAGLQPSKDEGVLKEISITHHVKAGSEKADPSHFELLKVLGQGSFGKVFLVRKVTRPDSGHLYAMKVLKKATLKVRDRVRTKMERDILADVNHPFVVKLHYAFQTEGKLYLILDFLRGGDLFTRLSKEVMFTEEDVKFYLAELALGLDHLHSLGIIYRDLKPENILLDEEGHIKLTDFGLSKEAIDHEKKAYSFCGTVEYMAPEVVNRQGHSHSADWWSYGVLMFEMLTGSLPFQGKDRKETMTLILKAKLGMPQFLSTEAQSLLRALFKRNPANRLGSGPDGAEEIKRHVFYSTIDWNKLYRREIKPPFKPAVAQPDDTFYFDTEFTSRTPKDSPGIPPSAGAHQLFRGFSFVATGLMEDDGKPRAPQAPLHSVVQQLHGKNLVFSDGYVVKETIGVGSYSECKRCVHKATNMEYAVKVIDKSKRDPSEEIEILLRYGQHPNIITLKDVYDDGKHVYLVTELMRGGELLDKILRQKFFSEREASFVLHTIGKTVEYLHSQGVVHRDLKPSNILYVDESGNPECLRICDFGFAKQLRAENGLLMTPCYTANFVAPEVLKRQGYDEGCDIWSLGILLYTMLAGYTPFANGPSDTPEEILTRIGSGKFTLSGGNWNTVSETAKDLVSKMLHVDPHQRLTAKQVLQHPWVTQKDKLPQSQLSHQDLQLVKGAMAATYSALNSSKPTPQLKPIESSILAQRRVRKLPSTTL [RPS6KA1] | -0.118 | 49.6 °C | 50.2 °C | 0.0398 | 0.39 | 1.42
MEMKKKINLELRNRSPEEVTELVLDNCLCVNGEIEGLNDTFKELEFLSMANVELSSLARLPSLNKLRKLELSDNIISGGLEVLAEKCPNLTYLNLSGNKIKDLSTVEALQNLKNLKSLDLFNCEITNLEDYRESIFELLQQITYLDGFDQEDNEAPDSEEEDDEDGDEDDEEEEENEAGPPEGYEEEEEEEEEEDEDEDEDEDEAGSELGEGEEEVGLSYLMKEEIQDEEDDDDYVEEGEEEEEEEEGGLRGEKRKRDAEDDGEEEDD [ANP32E] | 0.1 | 46.5 °C | 50.1 °C | -0.46 | 2.17 | 4.82
MVPLVAVVSGPRAQLFACLLRLGTQQVGPLQLHTGASHAARNHYEVLVLGGGSGGITMAARMKRKVGAENVAIVEPSERHFYQPIWTLVGAGAKQLSSSGRPTASVIPSGVEWIKARVTELNPDKNCIHTDDDEKISYRYLIIALGIQLDYEKIKGLPEGFAHPKIGSNYSVKTVEKTWKALQDFKEGNAIFTFPNTPVKCAGAPQKIMYLSEAYFRKTGKRSKANIIFNTSLGAIFGVKKYADALQEIIQERNLTVNYKKNLIEVRADKQEAVFENLDKPGETQVISYEMLHVTPPMSPPDVLKTSPVADAAGWVDVDKETLQHRRYPNVFGIGDCTNLPTSKTAAAVAAQSGILDRTISVIMKNQTPTKKYDGYTSCPLVTGYNRVILAEFDYKAEPLETFPFDQSKERLSMYLMKADLMPFLYWNMMLRGYWGGPAFLRKLFHLGMS [SQRDL] | -0.0579 | 54.3 °C | 54.3 °C | 0.148 | 0.51 | -4.29
MTSELDIFVGNTTLIDEDVYRLWLDGYSVTDAVALRVRSGILEQTGATAAVLQSDTMDHYRTFHMLERLLHAPPKLLHQLIFQIPPSRQALLIERYYAFDEAFVREVLGKKLSKGTKKDLDDISTKTGITLKSCRRQFDNFKRVFKVVEEMRGSLVDNIQQHFLLSDRLARDYAAIVFFANNRFETGKKKLQYLSFGDFAFCAELMIQNWTLGAVGEAPTDPDSQMDDMDMDLDKEFLQDLKELKVLVADKDLLDLHKSLVCTALRGKLGVFSEMEANFKNLSRGLVNVAAKLTHNKDVRDLFVDLVEKFVEPCRSDHWPLSDVRFFLNQYSASVHSLDGFRHQALWDRYMGTLRGCLLRLYHD [FIBP] | -0.13 | 50.3 °C | 49.5 °C | -0.45 | -0.876 | 0.233
MAPPVAERGLKSVVWQKIKATVFDDCKKEGEWKIMLLDEFTTKLLASCCKMTDLLEEGITVVENIYKNREPVRQMKALYFITPTSKSVDCFLHDFASKSENKYKAAYIYFTDFCPDNLFNKIKASCSKSIRRCKEINISFIPHESQVYTLDVPDAFYYCYSPDPGNAKGKDAIMETMADQIVTVCATLDENPGVRYKSKPLDNASKLAQLVEKKLEDYYKIDEKSLIKGKTHSQLLIIDRGFDPVSTVLHELTFQAMAYDLLPIENDTYKYKTDGKEKEAILEEEDDLWVRIRHRHIAVVLEEIPKLMKEISSTKKATEGKTSLSALTQLMKKMPHFRKQITKQVVHLNLAEDCMNKFKLNIEKLCKTEQDLALGTDAEGQKVKDSMRVLLPVLLNKNHDNCDKIRAILLYIFSINGTTEENLDRLIQNVKIENESDMIRNWSYLGVPIVPQSQQGKPLRKDRSAEETFQLSRWTPFIKDIMEDAIDNRLDSKEWPYCSQCPAVWNGSGAVSARQKPRANYLEDRKNGSKLIVFVIGGITYSEVRCAYEVSQAHKSCEVIIGSTHVLTPKKLLDDIKMLNKPKDKVSLIKDE [STXBP3] | -0.0474 | 49 °C | 49 °C | -0.0906 | -0.14 | 0.708
MKEPLLGGECDKAVASQLGLLDEIKTEPDNAQEYCHRQQSRTQENELKINAVFSESASQLTAGIQLSLASSGVNKMLPSVSTTAIQVSCAGCKKILQKGQTAYQRKGSAQLFCSIPCITEYISSASSPVPSKRTCSNCSKDILNPKDVISVQLEDTTSCKTFCSLSCLSSYEEKRKPFVTICTNSILTKCSMCQKTAIIQYEVKYQNVKHNLCSNACLSKFHSANNFIMNCCENCGTYCYTSSSLSHILQMEGQSHYFNSSKSITAYKQKPAKPLISVPCKPLKPSDEMIETTSDLGKTELFCSINCFSAYSKAKMESSSVSVVSVVHDTSTELLSPKKDTTPVISNIVSLADTDVALPIMNTDVLQDTVSSVTATADVIVDLSKSSPSEPSNAVASSSTEQPSVSPSSSVFSQHAIGSSTEVQKDNMKSMKISDELCHPKCTSKVQKVKGKSRSIKKSCCADFECLENSKKDVAFCYSCQLFCQKYFSCGRESFATHGTSNWKKTLEKFRKHEKSEMHLKSLEFWREYQFCDGAVSDDLSIHSKQIEGNKKYLKLIIENILFLGKQCLPLRGNDQSVSSVNKGNFLELLEMRAKDKGEETFRLMNSQVDFYNSTQIQSDIIEIIKTEMLQDIVNEINDSSAFSIICDETINSAMKEQLSICVRYPQKSSKAILIKERFLGFVDTEEMTGTHLHRTIKTYLQQIGVDMDKIHGQAYDSTTNLKIKFNKIAAEFKKEEPRALYIHCYAHFLDLSIIRFCKEVKELRSALKTLSSLFNTICMSGEMLANFRNIYRLSQNKTCKKHISQSCWTVHDRTLLSVIDSLPEIIETLEVIASHSSNTSFADELSHLLTLVSKFEFVFCLKFLYRVLSVTGILSKELQNKTIDIFSLSSKIEAILECLSSERNDVYFKTIWDGTEEICQKITCKGFKVEKPSLQKRRKIQKSVDLGNSDNMFFPTSTEEQYKINIYYQGLDTILQNLKLCFSEFDYCKIKQISELLFKWNEPLNETTAKHVQEFYKLDEDIIPELRFYRHYAKLNFVIDDSCINFVSLGCLFIQHGLHSNIPCLSKLLYIALSWPITSASTENSFSTLPRLKTYLCNTMGQEKLTGPALMAVEQELVNKLMEPERLNEIVEKFISQMKEI [ZMYM1] | -0.06 | – | 50.4 °C | -0.155 | 0.329 | 0.818
